Measured values as given in US20080261267A1, “Cellulases from Rumen” (priority 2004, published 2008).

How the values were obtained:
Assay type in all cases: biochemical
[1] = Specific activity of purified endoglucanases; conditions: purified to homogeneity; pH 5.6 and 50° C.; CMC as substrate
Protocol: FIG. 2 represents Table 2 which contains the data obtained by purification of endoglucanases of seven clones (pBKRR.1, 9, 11, 13, 14, 16 and 22) with respect to the specific activity. […] They were purified to homogeneity and their specific activity was estimated at pH 5.6 and 50° C., using CMC as substrate.
The endoglucanases were recovered from 1-liter shaked flask fermentations, in Luria-Bertany broth plus 50 μg of Kanamycin per ml. One gram of fermentation broth was mixed with 10 ml of standard buffer in a 50-ml Falcon tube. The solution was vortexed and then incubated with DNase I grade II, for 30-45 min, and then sonicated for 4 min total time. A sample of the soluble fraction was separated from insoluble debris by centrifugation (10,000×g, 30 min, 4° C.) and proteins were precipitated by addition of 80% chilled acetone (−20° C.). Proteins were resuspended in standard buffer and stored at −20° C. at a concentration of 5 mg/ml until use. The amount of protein expression was examined using SDS-PAGE with 10-12% acrylamide. […] The gel region containing the active cellulase, detected in a parallel track by activity staining (using Ostazin brillian-blue carboxymethyl cellulose) was excised, suspended in two volumes of standard fuffer and homogenized in a glass tissue homogenizer. […]
The standard cellulase activity was determined in a continuous spectrophotometric assay by measuring the release of reducing sugars from the 4% (wt/vol carboxymethyl cellulose (CMC) in 0.5-ml reaction mixtures containing 50 mM sodium acetate buffer, pH 5.6, at 40° C., using the dinitrosalycilic acid (DNS) method (Bernfeld, P. (1955) Amilases and b. In: Colowick S P, Kaplan N O (eds). Methods in Enzymology, Academic Press, New York pp. 133-155). The reaction was performed in 0.5 ml scale containing 20 mg substrate and 5 mg lyophilised cells or 0.1 mg purified enzyme. Reactions were allow to proceed for a time period of 5-30 min after which the samples were centrifuge (10,000×g, 3 min). […] Finally, each well was diluted with 150 μl water and the absorbance at 550 nm was measured. […]

[2] = pH-dependent activity and pH stability; conditions: cell lysates; CMC; 40° C.
Protocol: FIG. 3 represents Table 3 giving an overview over the biochemical properties of the cellulases according to the invention. Reaction was performed at the optimum pH and temperature for each done using CMC as substrate. […] The values for clones pBKRR.1, 9, 11, 13, 14, 16 and 22 are depicted. For each clone the following data are given: • maximum pH at which the remaining activity after 24 h incubation at the indicate pH is >90% (column “Stable at pH”). […] Activity was measured after 2 h incubation and compared with a control reaction in buffer lacking dimethylsulfoxide, • detergent resistance given by the remaining activity in the corresponding buffer (optimum pH) containing the indicate detergent at a concentration for 0 to 3%. […]
FIG. 4 a-c represent the results of the determination of pH and temperature optima showing graphically views of the pH-dependence activity and temperature-dependence activity of the polypeptides according to the invention. The pH optima of rumial endoglucanases were measured under conditions described in Example 5: 4% CMC, 0.5 mL of 50 mM buffer at the corresponding pH and 0.1 mg E. coli cell lysates, for 5-30 min, at 40° C. Effect of temperature on endoglucanase activity was measured in 50 mM sodium acetate buffer pH 5.6. […]

[3] = Cation dependence; conditions: 10 to 100 mM
Protocol: FIG. 3 represents Table 3 giving an overview over the biochemical properties of the cellulases according to the invention. Reaction was performed at the optimum pH and temperature for each done using CMC as substrate. […] The values for clones pBKRR.1, 9, 11, 13, 14, 16 and 22 are depicted. For each clone the following data are given: • maximum pH at which the remaining activity after 24 h incubation at the indicate pH is >90% (column “Stable at pH”). […] Activity was measured after 2 h incubation and compared with a control reaction in buffer lacking dimethylsulfoxide, • detergent resistance given by the remaining activity in the corresponding buffer (optimum pH) containing the indicate detergent at a concentration for 0 to 3%. […] The effect of mono- (Na^+, K^+, NH4^+, and divalent cations (Ca^2+, Mn^2+, Mg^2+, Sr^2+, Fe^2+, Cu^2+, Ni^2+, Co^2+, Zn^2+) was first examined by treating the enzyme with chelating agents (EDTA and EGTA) to remove any endogenous divalent cations, followed by adding cations to the reaction mixture.
[…] Inhibitors such as N-ethylmalemide, iodoacetate and p-chloromercuribenzoate at concentration from 1-5 mM were incubated in the presence of the enzyme for 30 min (30° C.) prior to the addition of the substrate (CMC). The effects of detergents on the endoglucanase activity was analysed by adding of 1-3% (wt/vol) detergent to the enzyme solution. In all cases, the enzyme activity was assayed in triplicate using the standard cellulose assay described above and the residual activity was expressed as percent of the control value (without addition of chemicals).

Molecule | specific activity [1] | activity at alkaline (pH 9.0-10.0) and acidophilic (3.5-4.0) conditions [2] | stimulatory effect of Mg^2+ ([3]; chloride salt) | influence of mono- and divalent cations on activity ([3]; chloride salts, after EDTA and EGTA treatment)
pBKRR.22: rumen endo-beta-1,4-glucanase, sequences FIG. 11/19 (protein, Description of sequence sequence derived from genomic DNA library from rumen ecosystem, particularly amino acid sequence of clones pBKRR 22, 6, 8 and 23;(see Figure 19)) MLLASFSLFSCGGSDGDDSTPTPSVSLQLVSQSIAEGAQVDAASTTVLTLNYNNPVRVTGNGVTLNGIAVKAKVSGNTSVEIPLTLVEGTVYTLKVAWGAIVAAADGKVVAPEFTLNFTTKGNQQPPIDENSPIAKKMGWGWNLGNHFDTSSGADGVRPQWGYWDNAKPTQVLYNNLRNAGTSTVRIGVTWGNYQNTSNWDIDANYIAEVRQNVEWAEAAGLNVILNMHHDEYWLDIKGAANNSSTNTNIKNRIEKTWKQIAEAFKDKGEFLIFESFNEIQDGGWGWGANRTDGGKQYKTLNEWNQLVVNTIRATGGNNATRWIGIPSYAANPSLALETGFVLPTDAANRLMVSVHFYDPSNFTLSPYVSDDSSEYKSGGYSEWGHTAAKGKADTGSNEDHVVAIFKKLHDKFVAKNIPVYIGEYGCVMHKNTRSNYFRNYYLEYVCRAAHEYGMPLCIWDNNQTGGGNEHHGYFNHTDGQYLNAMESLVKTMIKAATSDDASYTLESVYNKAPK | 68.30 µmol/min/mg | without variation of enzyme activity |  | 
pBKRR.14: rumen endoglucanase, sequences FIG. 16/24; also capable of hydrolyzing xylan (protein, Description of sequence sequence derived from genomic DNA library from rumen ecosystem, particularly amino acid sequence of clones pBKRR 14 and 20-1; RR14=RR20-1;(see Figure 24), also capable of hydrolyzing xylan) MINVLQHHPEVELSVDKTSVSFNRSGGEETFTVTSSTQPHVSADVSWVVVETGKIDKDHHTEVRVLAGANRKEASAGTLTVSCSDKKVSVSVKQEAFVAPSVASTTAVTPQMVFDAMGPGWNMGNHMDAISNGVSGETVWGNPKCTQATMDGVKAAGYKAVRICTTWEGHIGAAPAYALEQKWLDRVAEIVGYAEKAGLVAIVNTHHDESYWQDISKCYNNAANHEKVKDEVFSVWTQIAEKFKDKGEWLVFESFNEIQDGGWGWSDAFRKNPDAQYKVLNEWNQTFVDAVRSTGGQNATRWLGIPGYACNPGFTIAGLVLPKDYTTANRLMVAVHDYDPYDYTLKDPLIRQWGHTADADKRPSGDNEKAVVDVFNNLKAAYLDKGIPVYLGEMGCSRHTAADFPYQKYYMEYFCKAAADRLLPMYLWDNGAKGVGSERHAYIDHGTGQFVDEDARTLVGLMVKAVTTKDASYTLESVYNSAP | 34.60 µmol/min/mg |  | 127% | not influenced
